# Measured values: paper PMC4595762, “Structural basis of Ornithine Decarboxylase inactivation and accelerated degradation by polyamine sensor Antizyme1” (Scientific Reports, 2015)
# T1: Ornithine decarboxylase (human, UniProt P11926 1-461)
# T1 construct: Ornithine decarboxylase, Homo sapiens, full length; Cloned into pGEX-6p-1; The complex was purified and crystallised with the co-factor PLP (1 mM); One ODC monomer stands in the complex with cAZ1; also called ODC; human ODC; source: E. coli BL21 (DE3), purified (glutathione Sepharose 4B, PreScission cleavage, Superdex-200)
# T1 sequence (looked up): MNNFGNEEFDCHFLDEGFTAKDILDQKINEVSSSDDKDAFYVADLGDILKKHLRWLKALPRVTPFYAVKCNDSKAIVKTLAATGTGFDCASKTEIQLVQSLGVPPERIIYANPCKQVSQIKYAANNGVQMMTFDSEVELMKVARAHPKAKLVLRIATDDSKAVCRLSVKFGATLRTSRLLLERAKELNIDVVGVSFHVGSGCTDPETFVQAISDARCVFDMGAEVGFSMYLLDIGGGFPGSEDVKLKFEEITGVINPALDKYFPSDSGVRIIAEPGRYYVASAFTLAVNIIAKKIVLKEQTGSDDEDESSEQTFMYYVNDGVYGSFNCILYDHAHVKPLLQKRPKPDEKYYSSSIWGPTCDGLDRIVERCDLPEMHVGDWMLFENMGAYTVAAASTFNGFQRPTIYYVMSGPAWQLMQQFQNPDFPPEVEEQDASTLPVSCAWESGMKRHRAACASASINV
# Target: T1, Ornithine decarboxylase
# Experiment: crystal structure; purified ODC and cAZ1 mixed on ice for 1 hour with cAZ1 in excess; complex purified on Superdex-200 in 20 mM Tris pH 8.5, 150 mM NaCl, 2 mM DTT, 1 mM PLP; hanging-drop crystals at 15 °C; 3.2 Å
# Conditions: both partners purified
binder,measurement,value
"N-terminally truncated Antizyme1 (residues 69-228) (domain or fragment, Antizyme1 (AZ1), Homo sapiens, N-terminally truncated, residues 69-228; Cloned into pGEX-6p-1; also called cAZ1; AZ1; source: E. coli BL21 (DE3), purified (glutathione Sepharose 4B, PreScission cleavage, Superdex-200)) not shown",binding result,binds
